Measurements published in PMC10023946 (The Journal of Biological Chemistry, 2023).

Key:
CYP17A1 N52Y = target: T1, CYP17A1 N52Y (Homo sapiens, UniProt P05093, N52Y); test: X-ray co-crystal structure, […] Å; type: biochemical
T1 sequence (P05093 20-508 N52Y): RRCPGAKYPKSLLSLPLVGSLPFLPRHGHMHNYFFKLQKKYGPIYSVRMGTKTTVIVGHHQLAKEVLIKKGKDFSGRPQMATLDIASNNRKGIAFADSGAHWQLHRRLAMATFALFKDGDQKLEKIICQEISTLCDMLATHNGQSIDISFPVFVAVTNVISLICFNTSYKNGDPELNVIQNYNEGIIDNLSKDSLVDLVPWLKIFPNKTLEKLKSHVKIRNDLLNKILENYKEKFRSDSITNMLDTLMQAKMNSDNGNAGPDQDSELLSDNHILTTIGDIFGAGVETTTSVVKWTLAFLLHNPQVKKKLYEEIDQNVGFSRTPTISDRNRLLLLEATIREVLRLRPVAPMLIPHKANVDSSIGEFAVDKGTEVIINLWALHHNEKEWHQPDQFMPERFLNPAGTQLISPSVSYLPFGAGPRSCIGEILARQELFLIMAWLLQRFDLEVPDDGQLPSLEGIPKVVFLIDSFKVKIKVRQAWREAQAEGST

[1] = target: T2, cytochrome P450 17A1 (CYP17A1) (Homo sapiens, UniProt P05093); type: biochemical
T2 sequence (P05093 20-508): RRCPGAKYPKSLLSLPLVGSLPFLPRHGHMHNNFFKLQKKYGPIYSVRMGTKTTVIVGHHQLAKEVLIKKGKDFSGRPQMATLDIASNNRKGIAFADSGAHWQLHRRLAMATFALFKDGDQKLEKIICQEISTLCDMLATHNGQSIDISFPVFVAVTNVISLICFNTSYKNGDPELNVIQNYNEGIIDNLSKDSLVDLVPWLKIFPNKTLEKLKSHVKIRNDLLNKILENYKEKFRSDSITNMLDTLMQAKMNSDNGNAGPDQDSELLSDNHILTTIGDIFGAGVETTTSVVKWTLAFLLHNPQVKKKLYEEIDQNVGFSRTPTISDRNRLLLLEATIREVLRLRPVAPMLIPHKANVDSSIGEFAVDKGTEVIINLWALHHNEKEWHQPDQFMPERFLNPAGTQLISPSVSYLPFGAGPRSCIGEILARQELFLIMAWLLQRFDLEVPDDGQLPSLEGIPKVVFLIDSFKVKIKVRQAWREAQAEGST

purified protein [2] = substrate: CC(=O)[C@H]1CC[C@H]2[C@@H]3CCC4=CC(=O)CC[C@]4(C)[C@H]3CC[C@]12C; test: purified protein
purified protein [3] = substrate: CC(=O)[C@@]1(O)CC[C@H]2[C@@H]3CC=C4C[C@@H](O)CC[C@]4(C)[C@H]3CC[C@@]21C; test: purified protein; conditions: heme displacement of heme-coordinated water

`C[C@]12CC[C@H](O)CC1=CC[C@@H]1[C@@H]2CC[C@]2(C)C(c3cccnc3)=CC[C@@H]12` [abiraterone] gave an IC50 (CYP17A1 N52Y) of 51 ± 2 nM and an IC50 [1] of 69 ± 5 nM.

B1: CYP17A1 N52Y (Homo sapiens; N52Y) (protein)
chain: RRCPGAKYPKSLLSLPLVGSLPFLPRHGHMHNYFFKLQKKYGPIYSVRMGTKTTVIVGHHQLAKEVLIKKGKDFSGRPQMATLDIASNNRKGIAFADSGAHWQLHRRLAMATFALFKDGDQKLEKIICQEISTLCDMLATHNGQSIDISFPVFVAVTNVISLICFNTSYKNGDPELNVIQNYNEGIIDNLSKDSLVDLVPWLKIFPNKTLEKLKSHVKIRNDLLNKILENYKEKFRSDSITNMLDTLMQAKMNSDNGNAGPDQDSELLSDNHILTTIGDIFGAGVETTTSVVKWTLAFLLHNPQVKKKLYEEIDQNVGFSRTPTISDRNRLLLLEATIREVLRLRPVAPMLIPHKANVDSSIGEFAVDKGTEVIINLWALHHNEKEWHQPDQFMPERFLNPAGTQLISPSVSYLPFGAGPRSCIGEILARQELFLIMAWLLQRFDLEVPDDGQLPSLEGIPKVVFLIDSFKVKIKVRQAWREAQAEGST
With B1 the Km (purified protein [2]; heme displacement of heme-coordinated water) was 1.60 ± 0.09 µM and the Km (purified protein [3]) was 0.6 ± 0.1 µM.

B2: cytochrome P450 17A1 (CYP17A1) (Homo sapiens) (protein)
chain: RRCPGAKYPKSLLSLPLVGSLPFLPRHGHMHNNFFKLQKKYGPIYSVRMGTKTTVIVGHHQLAKEVLIKKGKDFSGRPQMATLDIASNNRKGIAFADSGAHWQLHRRLAMATFALFKDGDQKLEKIICQEISTLCDMLATHNGQSIDISFPVFVAVTNVISLICFNTSYKNGDPELNVIQNYNEGIIDNLSKDSLVDLVPWLKIFPNKTLEKLKSHVKIRNDLLNKILENYKEKFRSDSITNMLDTLMQAKMNSDNGNAGPDQDSELLSDNHILTTIGDIFGAGVETTTSVVKWTLAFLLHNPQVKKKLYEEIDQNVGFSRTPTISDRNRLLLLEATIREVLRLRPVAPMLIPHKANVDSSIGEFAVDKGTEVIINLWALHHNEKEWHQPDQFMPERFLNPAGTQLISPSVSYLPFGAGPRSCIGEILARQELFLIMAWLLQRFDLEVPDDGQLPSLEGIPKVVFLIDSFKVKIKVRQAWREAQAEGST
For B2, the Km (purified protein [2]; heme) was 5.2 ± 0.5 µM.
